Experimental findings from PMC8528238 (Nature, 2021) are described below.

This experiment concerns the target SARS-CoV-2 D614G stabilized spike ectodomain (SARS-CoV-2, D614G, UniProt A0A6H1PJZ3, D614G). Description: ELISA.

B1: DH1047, cross-neutralizing RBD antibody (antibody, V domains shown)
VH: QVQLVQSGAEVKKPGASVQVSCQASANTFTNHYIHWVRQAPGQGLEWMGIIYPTGGNTIYAQGFQGRVTMTRDTSLNTIYLELSSLRSEDTAVYYCARDVRVDDSWSGYDLLSGGTYFDYWGQGTLVTVSS
VL: not shown
Regarding B1, the binding result is reported as “binds”.

B2: DH1041, SARS-CoV-2-specific ACE2-binding site-focused RBD neutralizing antibody (antibody, V domains shown)
VH: EVQLVESGGGLVQPGGSLRLSCAASGVTFSSYWMSWVRQAPGKGLEWVANIRQDGSEKYSVDSVKGRFTISRDNAKNSLYLQMNSLRAEDTAVYYCARARRADNSGYYGFHFDCWGQGTLVTVSS
VL: QSVLTQPPSVSGAPGQRVTISCTGSSSNIGAGYDVHWYQQLPGTAPKLLIYGNNNRPSGVPDRFSDSKSGTSASLAITRLQAEDEADYYCQSYDSSLSGWVFGGGTKLTVL
In the case of B2, the binding result is listed as “binds”.
